What was measured:
[1] = molecular target: T1, human PD-1 expressed on cells (human, UniProt Q15116 25-288); test: flow cytometry, hPD1-Jurkat cells
T1 construct: whole, on cells

[2] = molecular target: T1, human PD-1 expressed on cells; test: flow cytometry, hPD-1-293 cells
hPD-1-Fc [3] = molecular target: T2, hPD-1-Fc (human, UniProt Q15116 25-167); test: SPR Biacore T200, PD-1-Fc immobilised
T2 construct: domain: IgV domain; also called human PD-1-Fc; not shown: human IgG1 Fc

hPD-1-his [4] = molecular target: T3, hPD-1-his (human, UniProt Q15116 25-167); test: ELISA, PD-1-his on anti-his
T3 construct: domain: IgV domain; monomer in solution; biotin-labelled where captured by streptavidin; also called biotin-hPD-1-his

[5] = molecular target: T1, human PD-1 expressed on cells; test: flow cytometry, SEB-activated PBMC donor
hPD-1-his [6] = molecular target: T3, hPD-1-his; test: ELISA, biotin-hPD-1-his on streptavidin
hPD-1-Fc [7] = molecular target: T2, hPD-1-Fc; test: ELISA, PD-1-Fc coated
[8] = molecular target: T1, human PD-1 expressed on cells; test: flow cytometry, activated PBMC donor FA
hPD-1-his [9] = molecular target: T3, hPD-1-his; test: SPR, Exp. 2
hPD-1-Fc [10] = molecular target: T2, hPD-1-Fc; test: blocking ELISA, PD-1 to PD-L1
hPD-1-Fc [11] = molecular target: T2, hPD-1-Fc; test: SPR, Exp. 1
hPD-1-his [12] = molecular target: T3, hPD-1-his; test: SPR, Exp. 1
[13] = molecular target: T1, human PD-1 expressed on cells; test: flow cytometry, activated PBMC donor two
hPD-1-Fc [14] = molecular target: T2, hPD-1-Fc; test: SPR, range over experiments
hPD-1-his [15] = molecular target: T3, hPD-1-his; test: ELISA, hPD-1-his on anti-his
[16] = molecular target: T1, human PD-1 expressed on cells; test: flow cytometry, hPD1-293 cells
hPD-1-his [17] = molecular target: T3, hPD-1-his; test: SPR, Exp. 4
hPD-1-Fc [18] = molecular target: T2, hPD-1-Fc; test: ELISA, hPD1-Fc coated
hPD-1-his [19] = molecular target: T3, hPD-1-his; test: SPR Biacore T200, PD-1-his immobilised
[20] = molecular target: T1, human PD-1 expressed on cells; test: flow cytometry, SEB-activated PBMC donor two
[21] = molecular target: T1, human PD-1 expressed on cells; test: cell-based or functional assay
[22] = molecular target: T1, human PD-1 expressed on cells; test: cell-based or functional assay; remark: listed apart in the source
hPD-1-Fc [23] = molecular target: T2, hPD-1-Fc; test: blocking ELISA, PD-1 to PD-L2
hPD-1-his [24] = molecular target: T3, hPD-1-his; test: ELISA, biotin-PD-1-his on streptavidin
hPD-1-Fc [25] = molecular target: T2, hPD-1-Fc; test: blocking ELISA, hPD-1-Fc to hPD-L1-Fc
[26] = molecular target: T1, human PD-1 expressed on cells; test: cell-based or functional assay; remark: listed apart in the source
hPD-1-Fc [27] = molecular target: T2, hPD-1-Fc; test: SPR, Exp. 3
hPD-1-his [28] = molecular target: T3, hPD-1-his; test: SPR, Exp. 3
[29] = molecular target: T1, human PD-1 expressed on cells; test: flow cytometry, hPD-1-Jurkat cells
[30] = molecular target: T1, human PD-1 expressed on cells; test: flow cytometry, hPD1-293 cells; remark: listed apart in the source
hPD-1-Fc [31] = molecular target: T2, hPD-1-Fc; test: ELISA, hPD-1-Fc coated
[32] = molecular target: T1, human PD-1 expressed on cells; test: flow cytometry, SEB-activated PBMC donor three
hPD-1-Fc [33] = molecular target: T2, hPD-1-Fc; test: blocking ELISA, hPD-1-Fc to hPD-L1-Fc; remark: listed apart in the source
[34] = molecular target: T1, human PD-1 expressed on cells; test: cell-based or functional assay; remark: listed apart in the source
[35] = molecular target: T1, human PD-1 expressed on cells; test: flow cytometry, SEB-activated PBMC donor one
hPD-1-his [36] = molecular target: T3, hPD-1-his; test: ELISA, captured hPD-1-his

T3 sequence (Q15116 other isoform, or with tags, fused parts or gaps limits assumed): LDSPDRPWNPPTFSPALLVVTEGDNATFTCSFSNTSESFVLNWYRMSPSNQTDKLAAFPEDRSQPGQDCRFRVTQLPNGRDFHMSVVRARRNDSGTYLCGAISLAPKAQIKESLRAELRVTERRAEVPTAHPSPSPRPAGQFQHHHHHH
T2 sequence (Q15116 25-167 limits assumed): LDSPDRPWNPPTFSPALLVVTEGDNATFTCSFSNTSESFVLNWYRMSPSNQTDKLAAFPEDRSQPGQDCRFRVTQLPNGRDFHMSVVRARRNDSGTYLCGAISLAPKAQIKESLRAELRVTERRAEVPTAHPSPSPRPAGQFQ
T1 sequence (Q15116 25-288): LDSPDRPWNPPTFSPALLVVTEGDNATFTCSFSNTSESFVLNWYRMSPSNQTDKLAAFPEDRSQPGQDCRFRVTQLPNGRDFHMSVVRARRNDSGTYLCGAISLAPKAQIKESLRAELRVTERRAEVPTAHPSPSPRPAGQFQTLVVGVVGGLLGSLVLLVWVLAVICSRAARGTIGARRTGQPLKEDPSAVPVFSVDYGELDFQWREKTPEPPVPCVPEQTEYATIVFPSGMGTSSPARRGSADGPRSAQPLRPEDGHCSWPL

B1: 31B1 (antibody, V domains shown)
VH: QVQLVQSGAEVKKPGSSVKVSCKASGGTFSSSVISWVRQAPGQGLEWMGGIIPIFGTANYAQKFQGRVTITADESTSTAYMELSSLRSEDTAVYYCAREGLGCSGGSCYSGYYYGMDVWGQGTTVTVSS
VL: DIVMTQSPLSLPVTPGEPASISCRSSQSLLHSNGYNYLDWYLQKPGQSPQLLIYEASSLHSGVPDRFSGSGSGTDFTLKISRVEAEDVGVYYCMQGTHWPYTFGQGTKVEIK
notes: also called 780_38; 33B1 and 31B2 (apparent misprints)
With B1 the EC50 [1] was 0.084 nM, the “MFI at 5 nM” value [1] was 91.6 MFI and the “MFI, 5 nM” value [2] was 186 MFI. For the same binder, the Kd (hPD-1-Fc [3]) was 0.688 nM, the EC50 (hPD-1-his [4]) was 0.139 nM and the “MFI, 5 nM” value [5] was 98.5 MFI. The EC50 (hPD-1-his [6]) was 0.244 nM, the “OD450 at 10 nM” value (hPD-1-his [6]) was 0.953 OD450 and the EC50 (hPD-1-Fc [7]) was 0.114 nM. For the same binder, the EC50 [8] was 0.049 nM, the “MFI at 25 nM” value [8] was 18.4 MFI and the Kd (hPD-1-his [9]) was under 0.01 nM. For the same binder, the IC50 (hPD-1-Fc [10]) was 2.65 nM, the “Inhibition, % at 5.56 nM” value (hPD-1-Fc [10]) was 89.7% and the Kd (hPD-1-Fc [11]) was under 0.014 nM. The Kd (hPD-1-his [12]) was under 0.036 nM, the EC50 [13] was 0.025 nM and the “MFI at 25 nM” value [13] was 17.8 MFI. For the same binder, the Kd (hPD-1-Fc [14]) was 0.01 to 0.02 nM, the EC50 (hPD-1-his [15]) was 0.095 nM and the “OD450 at 10 nM” value (hPD-1-his [15]) was 0.59 OD450. The EC50 [16] was 0.077 nM, the “MFI at 5 nM” value [16] was 46.4 MFI and the Kd (hPD-1-his [17]) was under 0.019 nM. The EC50 (hPD-1-Fc [18]) was 0.167 nM, the “OD450 at 10 nM” value (hPD-1-Fc [18]) was 0.974 OD450 and the Kd (hPD-1-his [19]) was 6.56 nM. The “MFI, 5 nM” value [20] was 67.7 MFI, the “EC50, Promega blockade bioassay, Exp. 1” value [21] was 0.168 µg/mL and the “EC50, Promega blockade bioassay, Exp. 2” value [21] was 0.172 µg/mL. For the same binder, the “Fold induction at 12 µg/ml, Exp. 1” value [21] was 7.44 fold, the “Fold induction at 12 µg/ml, Exp. 2” value [21] was 8.4 fold and the “EC50 averaged from two experiments, Promega blockade bioassay” value [22] was 0.168 µg/mL. For the same binder, the IC50 (hPD-1-Fc [23]) was 3.94 nM, the “Inhibition, % at 3.7 nM” value (hPD-1-Fc [23]) was 41.4% and the “Inhibition, % at 100 nM” value (hPD-1-Fc [23]) was 94.5%. For the same binder, the EC50 (hPD-1-his [24]) was 0.104 nM, the IC50 (hPD-1-Fc [25]) was 2.15 nM and the “Inhibition % at 5.6 nM” value (hPD-1-Fc [25]) was 90.2%. The “Inhibition % at 50 nM” value (hPD-1-Fc [25]) was 91.4%, the “EC50, Promega blockade bioassay” value [26] was 0.139 µg/mL and the Fold induction [26] was 6.48 fold. For the same binder, the Kd (hPD-1-Fc [27]) was under 0.01 nM, the Kd (hPD-1-his [28]) was 0.353 nM and the “MFI, 5 nM” value [29] was 67 MFI.

B2: 23H9 (antibody, human IgG1, V domains shown)
VH: B1 VH
VL: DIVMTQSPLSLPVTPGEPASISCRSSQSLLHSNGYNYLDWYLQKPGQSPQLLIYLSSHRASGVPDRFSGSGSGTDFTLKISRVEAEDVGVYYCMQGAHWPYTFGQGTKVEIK
For B2, the EC50 [30] was 2.53 nM, the “MFI at 68 nM” value [30] was 38.8 MFI and the EC50 [1] was 0.42 nM. For the same binder, the “MFI at 5 nM” value [1] was 120 MFI, the Kd (hPD-1-Fc [3]) was 0.928 nM and the EC50 (hPD-1-his [6]) was 0.18 nM. The “OD450 at 10 nM” value (hPD-1-his [6]) was 0.89 OD450, the EC50 (hPD-1-Fc [31]) was 0.151 nM and the “OD at 10 nM” value (hPD-1-Fc [31]) was 1.75 OD450. The EC50 [32] was 0.829 nM, the “MFI at 100 nM” value [32] was 109 MFI and the EC50 (hPD-1-his [15]) was 0.238 nM. The “OD450 at 10 nM” value (hPD-1-his [15]) was 0.406 OD450, the IC50 (hPD-1-Fc [33]) was 2.04 nM and the “Inhibition % (3.3 nM)” value (hPD-1-Fc [33]) was 82.5%. The “Inhibition % (30 nM)” value (hPD-1-Fc [33]) was 94.7%, the “EC 50, Promega PD-1/PD-L1 blockade bioassay” value [34] was 0.688 µg/mL and the Fold of induction [34] was 4.42 fold. For the same binder, the EC50 [16] was 0.33 nM, the “MFI at 5 nM” value [16] was 43 MFI and the EC50 (hPD-1-Fc [18]) was 0.121 nM. The “OD450 at 10 nM” value (hPD-1-Fc [18]) was 0.916 OD450, the Kd (hPD-1-his [19]) was 4.91 nM and the EC50 [35] was 0.993 nM. The “MFI at 100 nM” value [35] was 26.2 MFI, the IC50 (hPD-1-Fc [25]) was 1.27 nM and the “Inhibition % at 5.6 nM” value (hPD-1-Fc [25]) was 88.6%. For the same binder, the “Inhibition % at 50 nM” value (hPD-1-Fc [25]) was 90.4%, the EC50 (hPD-1-his [36]) was 0.35 nM and the “OD at 10 nM” value (hPD-1-his [36]) was 1.25 OD450. For the same binder, the “EC50, Promega blockade bioassay” value [26] was 0.551 µg/mL and the Fold induction [26] was 5.58 fold.

B3: 24H9 (antibody, human IgG1, V domains shown)
VH: EVQLLESGGGLVQPGGSLRLSCAASGFTFSSYWMSWVRQAPGKGLEWVSAISGSGGSTYYADSVKGRFTISRDNSKNTLYLQMNSLRAEDTAVYYCASSPLQWVDVWGQGTTVTVSS
VL: DIQMTQSPSSLSASVGDRVTITCRASQGISSWLAWYQQKPGKAPKLLIYSASSLQSGVPSRFSGSGSGTDFTLTISSLQPEDFATYYCQQANSFPFTFGPGTKVDIK
In the case of B3, the EC50 [30] is reported as 58.7 nM, the “MFI at 68 nM” value [30] is reported as 59 MFI and the EC50 [1] is reported as 0.77 nM. The “MFI at 5 nM” value [1] was 80.6 MFI, the Kd (hPD-1-Fc [3]) was 1.46 nM and the EC50 (hPD-1-Fc [31]) was 0.128 nM. For the same binder, the “OD at 10 nM” value (hPD-1-Fc [31]) was 1.84 OD450, the EC50 [32] was 0.913 nM and the “MFI at 100 nM” value [32] was 70.5 MFI. For the same binder, the IC50 (hPD-1-Fc [33]) was 2.28 nM, the “Inhibition % (3.3 nM)” value (hPD-1-Fc [33]) was 70% and the “Inhibition % (30 nM)” value (hPD-1-Fc [33]) was 92.9%. For the same binder, the “EC 50, Promega PD-1/PD-L1 blockade bioassay” value [34] was 0.823 µg/mL, the Fold of induction [34] was 3.96 fold and the EC50 [16] was 2.69 nM. The “MFI at 5 nM” value [16] was 42.8 MFI, the Kd (hPD-1-his [19]) was 13.9 nM and the EC50 [35] was 1.37 nM. For the same binder, the “MFI at 100 nM” value [35] was 18.7 MFI, the EC50 (hPD-1-his [36]) was 1.31 nM and the “OD at 10 nM” value (hPD-1-his [36]) was 0.69 OD450. For the same binder, the “EC50, Promega blockade bioassay” value [26] was 0.855 µg/mL and the Fold induction [26] was 4.97 fold.
